Patent publication US20250326818A1 (UNIVERSIT T BASEL, published 2025)
Positions count from the first letter of the chain named.

Tests used:
Test in all cases: BLI (Octet), biotinylated CD123 ECD captured on streptavidin tips, hIL3 as analyte, level at 250 s normalised to loading
[1] = target: T1, CD123 ECD S59Y (human, UniProt P26951 19-305)
T1 construct: Recombinant ECD
T1 sequence: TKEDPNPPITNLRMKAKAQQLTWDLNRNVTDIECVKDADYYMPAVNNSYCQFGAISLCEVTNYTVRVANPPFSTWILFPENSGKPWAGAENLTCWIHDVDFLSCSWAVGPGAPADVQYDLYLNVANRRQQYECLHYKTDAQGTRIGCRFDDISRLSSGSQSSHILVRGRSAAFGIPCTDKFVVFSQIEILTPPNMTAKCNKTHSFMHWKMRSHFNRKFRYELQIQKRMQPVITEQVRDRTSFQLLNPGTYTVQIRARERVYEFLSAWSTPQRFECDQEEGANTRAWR
Method: (§1) Binding of hIL3 (SinoBiological, PN: 11858-H08H) (analyte) to CD123 ECD wt. and variants (ligands) was performed using Streptavidin capture biosensor (SA) (Sartorius, PN: 18-5019). CD123 ECD wt. and variants were biotinylated using Biotinylation kit Type B (Abeam, PN: ab201796) following manufacturer instructions. Biotinylated CD123 ECD wt. and variants (ligands) were captured on SA tips for 1000 s to achieve a nm shift of 1.5 to 2 nm. Analyte hIL3 was titrated at 7 concentrations from 500 to 7.8 nM. Association to analyte was monitored for 300 s and dissociation for 120 s. Buffer only well was used as reference. No regeneration was performed, and a new set of tips was used for each biotinylated captured ligand. Data were analyzed using the Octet Data Analysis software HT 12.0. Due to the fast on/off nature of the interaction data were analyzed using Steady state analysis. Qualitative representation in FIG. 11 binding level were taken at 250 s association for all concentrations.

[2] = target: T2, CD123 ECD E51T (human, UniProt P26951 19-305)
T2 construct: Recombinant ECD
T2 sequence: T1 sequence with E33T, Y41S
Method: as §1

[3] = target: T3, CD123 ECD S59E (human, UniProt P26951 19-305)
T3 construct: Recombinant ECD
T3 sequence: T1 sequence with Y41E
Method: as §1

[4] = target: T4, CD123 ECD R84E (human, UniProt P26951 19-305)
T4 construct: Recombinant ECD
T4 sequence: T1 sequence with Y41S, R66E
Method: as §1

[5] = target: T5, CD123 ECD S59R (human, UniProt P26951 19-305)
T5 construct: Recombinant ECD
T5 sequence: T1 sequence with Y41R
Method: as §1

[6] = target: T6, CD123 ECD E51K (human, UniProt P26951 19-305)
T6 construct: Recombinant ECD
T6 sequence: T1 sequence with E33K, Y41S
Method: as §1

Measured: binding result

B1: hIL3 (ligand, human, UniProt P08700 20-152, looked up)
chain: APMTQTTPLKTSWVNCSNMIDEIITHLKQPPLPLLDFNNLNGEDQDILMENNLRRPNLEAFNRAVKSLQNASAIESILKNLLPCLPLATAAPTRHPIHIKDGDWNEFRRKLTFYLKTLENAQAQQTTLSLAIF
notes: also called Interleukin-3
binds: all assays above
